Assay results: patent US11203773B2, “Designer ribosomes and methods of use thereof for incorporating non-standard amino acids into polypeptides” (Yale University, priority 2016, dated 2021)

How the values were obtained:
[1] = tested on: N[C@@H](CCC(=O)O)C(=O)O; assay: purified protein, by the assay type; conditions: other: adenylation, GluRS; pH 7.0; 25.0 °C
Procedure: Adenylation of α- and β-Amino Acids Catalyzed by E. coli PheRS, GlyRS, MetRS, and GluRS. […] Briefly, assay mixtures (50 μL) assembled at 25° C. contained the requisite α- or β^3-amino acid substrate (between 5 μM and 5 mM) in 100 mM HEPES (pH 7.0) containing 100 mM KCl, 15 mM MgCl2, 2 mM ATP, 0.5 mM NaPPi, and 50 μCi [^32P]-NaPPi). Reactions were initiated upon addition of enzyme (10 nM MetRS, 10 nM PheRS, or 50 nM GlyRS; 100 nM GluRS for reactions with α-Glu or 1.13 μM GluRS for reactions with β^3-Glu), incubated for various times (10 sec to 10 min), and halted by adding a 5 μL reaction aliquot to 100 μL quenching solution (10% charcoal, 0.5% HCl). 50 μL of 200 mM NaPPi in 1.5 N HCl was then added to each quenched reaction to decrease nonspecific binding of pyrophosphate to the charcoal. Each quenched reaction was then filtered through Whatman filter paper (number 3), previously washed with washing solution (200 mM NaPPi in 1 N HCl) using a 96-well BIO-DOT® apparatus (BioRad). Each well of the apparatus was then washed four times with 200 μL aliquots of washing solution (by pipetting washing solution up and down at least 10 times per wash) to minimize nonspecific binding of pyrophosphate to charcoal. Each experimental well was paired with an analogous control well (no-enzyme control) that lacked enzyme; a single membrane contained time points for both α- and β^3-amino acid substrates and all no-enzyme controls. The membrane was allowed to dry and was protected with a sheet of Microseal B adhesive seals (Biorad) prior to exposure to a BAS Storage Phosphor screen. Screens were imaged on a Typhoon 9500FLA biomolecule imager and the signal intensity of each dot was quantified using ImageJ to determine the relative amount of [^32P]-ATP formed as a function of time (Ctime). Each raw value were corrected by subtracting the intensity of the dot corresponding to the appropriate no-enzyme control (Cblank) and the resulting corrected values of Ccorr (representing the relative amounts of ^32P-ATP formed) were plotted as a function of time to determine values of relative ^32P-ATP formed per minute. Those values were divided by the concentration of enzyme used, and the data was plotted as relative specific activity (^32P-ATP formed min^−1×μM^−1 enzyme) and fitted using Prism by performing nonlinear regression using the least squares method and Equation 1 to obtain RSA (relative specific activity) and KM values (Equation 1 and Table 2).
In Equation 1, v is the apparent relative specific activity (relative ^32P-ATP formed per minute) obtained at each substrate concentration divided by the enzyme concentration, RSA is the relative specific activity, S is the concentration of substrate, and KM is the Michaelis-Menten constant.

[2] = tested on: N[C@@H](CCC(=O)O)C(=O)O; assay: Aminoacylation of 32P-tRNA with α- and β3-amino acids; type: biochemical, E. coli; conditions: other: aminoacylation, GluRS

E. coli GluRS (Escherichia coli K-12) showed a Km [1] of 76.4 ± 43.0 µM, a kcat [1] of 22.5 ± 3.43 s⁻¹ and a kcat/Km [1] of 293000 ± 172000 M⁻¹ s⁻¹. It also gave a Km [2] of 277.1 ± 101.5 µM, a kcat [2] of 0.000767 ± 6.67e-05 s⁻¹ and a kcat/Km [2] of 2.67 ± 1 M⁻¹ s⁻¹.
